How the values were obtained:
human tenascin C (human) [1] = molecular target: human tenascin C (human) (UniProt P24821); assay: BIAcore on whole tenascin
human tenascin C (human) [2] = molecular target: human tenascin C (human) (UniProt P24821); assay: ELISA on tenascin C, biotinylated against non-biotinylated antibody
[3] = molecular target: T1, Tn (A(1-4)-D) fragment of human tenascin (human, UniProt P24821 1076-1711, limits assumed); assay: ELISA on Tn A(1-4)-D fragment, biotinylated against non-biotinylated antibody
T1 construct: domain: A(1-4)-D
T1 sequence (looked up): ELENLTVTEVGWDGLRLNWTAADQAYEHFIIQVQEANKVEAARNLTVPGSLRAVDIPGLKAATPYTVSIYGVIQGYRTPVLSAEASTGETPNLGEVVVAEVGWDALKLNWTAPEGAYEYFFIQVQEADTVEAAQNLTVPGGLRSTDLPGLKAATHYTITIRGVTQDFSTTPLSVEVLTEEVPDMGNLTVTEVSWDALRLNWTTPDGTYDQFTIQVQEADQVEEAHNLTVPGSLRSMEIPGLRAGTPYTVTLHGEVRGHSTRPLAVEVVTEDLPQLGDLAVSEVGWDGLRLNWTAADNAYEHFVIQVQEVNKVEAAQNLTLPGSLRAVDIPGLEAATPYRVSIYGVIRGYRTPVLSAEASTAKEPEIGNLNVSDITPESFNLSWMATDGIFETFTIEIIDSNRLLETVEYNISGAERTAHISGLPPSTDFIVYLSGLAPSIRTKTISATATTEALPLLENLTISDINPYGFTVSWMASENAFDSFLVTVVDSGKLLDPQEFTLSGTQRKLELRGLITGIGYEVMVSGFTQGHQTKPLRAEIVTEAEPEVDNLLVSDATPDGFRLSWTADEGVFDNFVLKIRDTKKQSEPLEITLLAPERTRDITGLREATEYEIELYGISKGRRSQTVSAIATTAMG

human tenascin C (human) [4] = molecular target: human tenascin C (human) (UniProt P24821); assay: BIAcore on tenascin C
[5] = molecular target: T1, Tn (A(1-4)-D) fragment of human tenascin; assay: BIAcore on Tn (A1-4-D) fragment
[6] = molecular target: T2, EGF-like fragment of human tenascin (human, UniProt P24821 174-621, limits assumed); assay: Western blot
T2 construct: domain: EGF-like
T2 sequence (looked up): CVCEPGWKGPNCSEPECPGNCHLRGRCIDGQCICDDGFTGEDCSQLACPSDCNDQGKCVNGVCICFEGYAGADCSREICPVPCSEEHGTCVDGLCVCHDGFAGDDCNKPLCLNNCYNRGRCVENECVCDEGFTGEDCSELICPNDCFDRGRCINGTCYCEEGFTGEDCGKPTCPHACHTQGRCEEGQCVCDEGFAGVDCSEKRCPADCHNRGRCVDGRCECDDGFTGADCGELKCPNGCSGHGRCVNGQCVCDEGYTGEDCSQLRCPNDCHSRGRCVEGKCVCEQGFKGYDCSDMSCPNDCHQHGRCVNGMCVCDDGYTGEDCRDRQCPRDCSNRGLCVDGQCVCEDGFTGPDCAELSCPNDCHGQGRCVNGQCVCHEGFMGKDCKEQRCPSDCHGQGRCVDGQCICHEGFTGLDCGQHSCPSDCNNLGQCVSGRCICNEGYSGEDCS

human tenascin C (human) [7] = molecular target: human tenascin C (human) (UniProt P24821); assay: ELISA on plates coated with tenascin C, reference BC-2
[8] = molecular target: T1, Tn (A(1-4)-D) fragment of human tenascin; assay: ELISA on plates coated with Tn A(1-4)-D fragment, reference BC-2
Method: The immunoreactivity of ST2485 was evaluated in comparison with BC-2 by ELISA assay on tenascin C and on the Tn A₍₁₋₄₎-D fragment, as shown in FIG. 7. The antibodies ST2485 and BC-2 and the normal mouse immunoglobulins (nMIgG) were dispensed at increasing concentrations on plates sensitised with tenascin C (a) or with the Tn A₍₁₋₄₎-D fragment (b); the addition of the secondary antimouse antibody labelled with alkaline phosphatase and the related chromogenic substrate (pNPP) made it possible to determine the dose-response curve of the antibodies. The amount of ST2485 necessary to obtain 1.0 OD is approximately 13 times less than the amount of BC-2 on whole tenascin (a), and approximately 10 times less than the amount of BC-2 on the Tn (A1-4-D) fragment (b).

human tenascin C (human) [9] = molecular target: human tenascin C (human) (UniProt P24821); assay: competitive ELISA on tenascin C; competitor biotinylated BC-2 at fixed concentration
human tenascin C (human) [10] = molecular target: human tenascin C (human) (UniProt P24821); assay: ELISA on plates coated with tenascin C, alkaline phosphatase anti-mouse antibody, pNPP
[11] = molecular target: T1, Tn (A(1-4)-D) fragment of human tenascin; assay: competitive ELISA on plates coated with Tn A(1-4)-D fragment; unlabelled antibody at increasing concentration against biotinylated BC-2 at a fixed concentration, HRP-streptavidin/TMB
Method: The biotinylated antibody BC-2, at a concentration established in preliminary experiments, is dispensed with non-biotinylated BC-2 (curve 1) or ST2485 (curve 2) in increasing concentrations on plates sensitised with the antigen tenascin C (a), or Tn A₍₁₋₄₎-D fragment (b). The binding of the biotinylated antibody is measured after addition of HRP-streptavidin and the related chromogenic substrate TMB.

human tenascin C (human) [12] = molecular target: human tenascin C (human) (UniProt P24821); assay: BIAcore on whole tenascin, reference biotinylated BC-2

Chain of human tenascin C (human) (P24821 23-2201): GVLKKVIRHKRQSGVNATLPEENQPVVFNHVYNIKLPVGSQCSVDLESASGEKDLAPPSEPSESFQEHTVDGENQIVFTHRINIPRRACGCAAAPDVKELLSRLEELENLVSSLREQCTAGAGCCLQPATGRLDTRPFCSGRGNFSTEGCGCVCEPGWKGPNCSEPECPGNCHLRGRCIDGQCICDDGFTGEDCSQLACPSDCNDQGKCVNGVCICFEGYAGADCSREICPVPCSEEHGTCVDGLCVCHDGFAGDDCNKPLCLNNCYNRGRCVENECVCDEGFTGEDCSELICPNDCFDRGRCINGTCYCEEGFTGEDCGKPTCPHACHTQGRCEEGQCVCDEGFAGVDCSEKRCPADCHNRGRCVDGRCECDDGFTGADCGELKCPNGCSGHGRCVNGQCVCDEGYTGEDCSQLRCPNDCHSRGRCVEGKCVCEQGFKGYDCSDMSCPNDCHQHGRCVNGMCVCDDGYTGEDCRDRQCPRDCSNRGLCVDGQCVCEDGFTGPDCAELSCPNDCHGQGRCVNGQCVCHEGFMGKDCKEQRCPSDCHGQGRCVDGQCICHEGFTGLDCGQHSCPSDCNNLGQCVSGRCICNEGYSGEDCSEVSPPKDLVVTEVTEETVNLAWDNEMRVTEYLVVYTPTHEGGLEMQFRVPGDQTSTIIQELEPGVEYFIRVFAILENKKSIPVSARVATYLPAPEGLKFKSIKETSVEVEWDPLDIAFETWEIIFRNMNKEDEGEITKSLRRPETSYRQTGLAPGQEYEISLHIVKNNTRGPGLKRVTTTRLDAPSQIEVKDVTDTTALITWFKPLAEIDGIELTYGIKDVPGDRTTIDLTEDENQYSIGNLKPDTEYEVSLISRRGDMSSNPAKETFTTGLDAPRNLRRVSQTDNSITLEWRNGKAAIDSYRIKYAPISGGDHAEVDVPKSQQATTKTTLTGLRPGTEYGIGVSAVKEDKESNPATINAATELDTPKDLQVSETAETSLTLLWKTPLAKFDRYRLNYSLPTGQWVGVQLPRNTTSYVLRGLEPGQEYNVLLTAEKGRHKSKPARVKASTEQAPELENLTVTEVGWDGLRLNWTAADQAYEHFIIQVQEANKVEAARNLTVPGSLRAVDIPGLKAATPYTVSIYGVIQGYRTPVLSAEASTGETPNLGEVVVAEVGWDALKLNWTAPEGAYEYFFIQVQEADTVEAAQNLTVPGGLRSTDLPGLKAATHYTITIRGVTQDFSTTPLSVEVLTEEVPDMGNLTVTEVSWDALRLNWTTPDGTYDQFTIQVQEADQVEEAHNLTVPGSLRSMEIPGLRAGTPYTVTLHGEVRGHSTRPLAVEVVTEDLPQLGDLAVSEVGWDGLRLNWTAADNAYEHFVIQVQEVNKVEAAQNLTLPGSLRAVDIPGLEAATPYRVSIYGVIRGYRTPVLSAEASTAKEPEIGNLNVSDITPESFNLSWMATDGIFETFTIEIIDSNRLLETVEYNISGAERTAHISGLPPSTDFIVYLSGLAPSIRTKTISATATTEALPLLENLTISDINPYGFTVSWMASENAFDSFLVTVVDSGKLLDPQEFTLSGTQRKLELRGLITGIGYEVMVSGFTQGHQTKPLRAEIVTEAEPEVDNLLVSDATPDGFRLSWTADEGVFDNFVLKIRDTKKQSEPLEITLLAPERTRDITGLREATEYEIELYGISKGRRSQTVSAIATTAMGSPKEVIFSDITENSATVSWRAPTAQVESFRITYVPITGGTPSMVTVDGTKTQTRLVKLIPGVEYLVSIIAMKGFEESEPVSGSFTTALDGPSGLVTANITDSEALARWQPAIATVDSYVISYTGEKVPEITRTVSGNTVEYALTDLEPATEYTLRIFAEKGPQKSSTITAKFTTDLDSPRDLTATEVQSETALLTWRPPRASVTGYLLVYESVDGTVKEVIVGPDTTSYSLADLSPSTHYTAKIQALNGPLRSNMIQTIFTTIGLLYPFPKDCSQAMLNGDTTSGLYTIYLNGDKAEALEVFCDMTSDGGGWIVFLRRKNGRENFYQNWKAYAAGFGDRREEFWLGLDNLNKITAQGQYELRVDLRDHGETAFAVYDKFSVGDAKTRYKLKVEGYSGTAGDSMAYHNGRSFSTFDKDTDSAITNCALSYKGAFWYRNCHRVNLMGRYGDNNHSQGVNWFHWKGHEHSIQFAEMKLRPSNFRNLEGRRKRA

Question: Which Kd (human tenascin C (human) [1]) does the source give for biotinylated BC-2 (antibody) here?
Answer: 0.371 µM

Question: What about the residual immunoreactivity (human tenascin C (human) [2]) of the same molecule?
Answer: 88%

Question: And the residual immunoreactivity [3]?
Answer: 83%

Question: anti-tenascin monoclonal antibody BC-2 was tested. Which Kd (human tenascin C (human) [4]) did it give?
Answer: 0.254 µM

Question: What about the Kd [5] of the same molecule?
Answer: 0.0739 µM

B1: anti-human tenascin monoclonal antibody ST2485 (antibody, V domains shown)
VH: EVQLQQSGPELVKPGASMKISCKASGYSFTGYTMNWVKQSHGKNLEWIGLINPHNGGTTYNQKFKGKATLTVDKSSNTAYMELLSLTSEDSAVYYCTRPGGYYWFFDVWGAGTTVTVSS
VL: QIVLSQSPAILSASPGEKVTMTCRANSSVRFMHWYQQKPGSSPKPWIYATSNLASGVPARFSGSGSGTSYSVTISRVEAEDAATYYCQQWSSNSPRTFGGGTKVEIRR
modifications: part of the light chain is N-glycosylated (glycosylated and non-glycosylated variants; site not numbered)
notes: Mouse immunoglobulin of IgG1/k isotype from hybridoma cST2485
Question: Which results are given for B1?
Answer: binding result [6]: no binding; Kd (human tenascin C (human) [4]): 0.000977 µM; Kd [5]: 0.000972 µM; koff [5]: 0.000319 s⁻¹; kon [5]: 328000 M⁻¹ s⁻¹; fold less antibody than BC-2 needed to obtain 1.0 OD (human tenascin C (human) [7]): 13 fold; fold less antibody than BC-2 needed to obtain 1.0 OD [8]: ~10 fold; % inhibition of BC-2 binding (human tenascin C (human) [9]): 40%; EC50 (read off the curve) (human tenascin C (human) [10]): 0.02 mg/L; IC50 (read off the curve) [11]: ~0.03 mg/L

B2: biotinylated ST2485 (antibody, V domains shown)
VH: EVQLQQSGPELVKPGASMKISCKASGYSFTGYTMNWVKQSHGKNLEWIGLINPHNGGTTYNQKFKGKATLTVDKSSNTAYMELLSLTSEDSAVYYCTRPGGYYWFFDVWGAGTTVTVSS
VL: QIVLSQSPAILSASPGEKVTMTCRANSSVRFMHWYQQKPGSSPKPWIYATSNLASGVPARFSGSGSGTSYSVTISRVEAEDAATYYCQQWSSNSPRTFGGGTKVEIRR
modifications: biotinylated, 8.3 biotins/molecule of antibody (sites not given)
Question: For B2, which Kd (human tenascin C (human) [1]) is on record?
Answer: 0.00288 µM

Question: What about the fold greater affinity than biotinylated BC-2 (human tenascin C (human) [12]) of the same molecule?
Answer: 100 fold

Question: What about the residual immunoreactivity (human tenascin C (human) [2]) of the same molecule?
Answer: 76%

Reference: patent US20100297003A1 (TECNOGEN S C P A, published 2010)
